Assay results from publication PMC4866589.

Substrate: Nc1ncnc2c1ncn2[C@@H]1O[C@H](COP(=O)(O)OP(=O)(O)OP(=O)(O)O)[C@@H](O)[C@H]1O
Assay: ATP Km by microfluidic mobility shift kinase assay
Format: biochemical, Homo sapiens
Conditions: Mg2+ ([…] MgCl2 in the assay buffer)

B1: hTSSK2 (testis-specific serine/threonine kinase 2) (Homo sapiens) (protein)
chain: MDDATVLRKKGYIVGINLGKGSYAKVKSAYSERLKFNVAVKIIDRKKTPTDFVERFLPREMDILATVNHGSIIKTYEIFETSDGRIYIIMELGVQGDLLEFIKCQGALHEDVARKMFRQLSSAVKYCHDLDIVHRDLKCENLLLDKDFNIKLSDFGFSKRCLRDSNGRIILSKTFCGSAAYAAPEVLQSIPYQPKVYDIWSLGVILYIMVCGSMPYDDSDIRKMLRIQKEHRVDFPRSKNLTCECKDLIYRMLQPDVSQRLHIDEILSHSWLQPPKPKATSSASFKREGEGKYRAECKLDTKTGLRPDHRPDHKLGAKTQHRLLVVPENENRMEDRLAETSRAKDHHISGAEVGKAST
- Km: 2.17 ± 0.04 µM
